The chains are these.
T1: C-terminally truncated HBV core antigen (aa3-148) (hepatitis B virus), P03146
T1 chain: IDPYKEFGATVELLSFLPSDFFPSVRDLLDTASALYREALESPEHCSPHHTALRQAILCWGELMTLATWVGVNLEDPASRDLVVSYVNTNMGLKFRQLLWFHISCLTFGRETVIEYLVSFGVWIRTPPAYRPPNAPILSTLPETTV

T2: HBV core antigen (hepatitis B virus), P03146
T2 chain: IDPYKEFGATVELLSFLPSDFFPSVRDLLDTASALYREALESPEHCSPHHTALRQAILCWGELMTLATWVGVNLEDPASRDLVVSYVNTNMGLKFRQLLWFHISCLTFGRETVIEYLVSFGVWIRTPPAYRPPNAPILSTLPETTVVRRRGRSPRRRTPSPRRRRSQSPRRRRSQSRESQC

Bounds are passed on as bounds.

For one assay, the target named is T1, C-terminally truncated HBV core antigen …. As to the kind of experiment: EDC/sulpho-NHS crosslinking, SDS-PAGE band shift.
On to MHRSLLGRMKGA (modifications not checked) [peptide … (SEQ ID NO: 40)], for which the yield of the shifted (crosslinked) protein band was less than 50%.

The next assay has as its target T2, HBV core antigen (hepatitis B virus), …. Description: relative dissociation constant (KD^Rel), fd fusion phage with HBV core antigen in solution.
ADGALLGRMKRA (modifications not checked) [fd fusion phage carrying … (SEQ ID NO: 16)]: the Kd (in general, a measure of binding affinity in units of concentration) was 181 nM.

ADGPRSSLLGRMKGA (modifications not checked) [fd fusion phage carrying … (SEQ ID NO: 23)] returned a Kd of 0.84 nM.

ADGYQRSLLGRMKGA (modifications not checked) [fd fusion phage carrying … (SEQ ID NO: 25)] returned a Kd of 0.88 nM.

As for ADGSRSSLLGRMKGA (modifications not checked) [fd fusion phage carrying … (SEQ ID NO: 20)], the Kd was determined as 1.96 nM.

The molecule ADRSLLGRMKGA (modifications not checked) [fd fusion phage carrying … (SEQ ID NO: 19)] gave a Kd of 1.09 nM.

The molecule ADGHRSSLLGRMKGA (modifications not checked) [fd fusion phage carrying … (SEQ ID NO: 22)] showed a Kd of 1.4 nM.

The molecule ADGALLGRMKPA (modifications not checked) [fd fusion phage carrying … (SEQ ID NO: 14)] returned a Kd of 767 nM.

Regarding ADGTQRSLLGRMKGA (modifications not checked) [fd fusion phage carrying … (SEQ ID NO: 26)], the Kd worked out at 0.84 nM.

Consider ADGAHRSLLGRMKGA (modifications not checked) [fd fusion phage carrying … (SEQ ID NO: 24)], for which the Kd stood at 0.94 nM. This Kd and that of the molecule before are within 1.5-fold of each other.

ADGTLLGRMKLA (modifications not checked) [fd fusion phage carrying … (SEQ ID NO: 17)]: the Kd is 20 nM.

The molecule ADGSLLGRMKPA (modifications not checked) [fd fusion phage carrying … (SEQ ID NO: 15)] gave a Kd of 322 nM.

These data come from patent US7226603.
